According to publication PMC10338342, “Cooperation between bHLH transcription factors and histones for DNA access” (Nature, 2023):
Blank lines part the entries; values can stand above or below the binder they belong to.

B1: BMAL1 bHLH PAS-AB (residues 62-441), chain of the CLOCK-BMAL1 heterodimer (domain or fragment)
chain: not shown
notes: BMAL1, mouse, bHLH PAS-AB, residues 62-441; Always present as part of m1; made a molecule of its own for the contacts that the structures and cross-links assign to BMAL1

Key:
[1] = molecular target: histone H3.1 (human), in the nucleosome (human, UniProt P68431 1-136); assay: cross-linking; XL-MS with DSSO, TF and nucleosome mixed 1.5:1; CLOCK-BMAL1 with NCP SHL−6.2; conditions: both partners purified
[2] = molecular target: T1, histone H4 (human), in the nucleosome (human, UniProt P62805 1-103); assay: cryo-EM structure; CLOCK-BMAL1 on a W601-variant nucleosome with a histone-facing E-box at SHL−6.2 (1:3 NCP:TF), GraFix cross-linked; 3.8 Å overall; PAS domains placed by Rosetta local docking with density scoring and one cross-link; conditions: both partners purified
T1 construct: Always part of m4; source: in the reconstituted nucleosome

[3] = molecular target: T2, mouse BMAL1 bHLH (residues 73–135) with an additional C-terminal tryptophan (mouse, UniProt Q9WTL8 73-135); assay: SEC; CLOCK bHLH and BMAL1 bHLH purified separately, mixed at equimolar ratios, about one hour on ice, S75 10/300 GL column; conditions: both partners purified
T2 construct: BMAL1, mouse, bHLH, residues 73-135; additional tryptophan engineered at the C terminus to allow for UV detection; source: E. coli vector (pET28-derived), expressed and purified separately (HisTrap HP)

[4] = molecular target: B1; assay: cryo-EM structure; CLOCK-BMAL1 on a W601-variant nucleosome with a solvent-exposed E-box at SHL+5.8 (1:1.5 NCP:TF), GraFix glutaraldehyde cross-linked; 3.6 Å overall, PAS domains 9-11 Å; conditions: both partners purified
[5] = molecular target: T1, histone H4 (human), in the nucleosome; assay: cryo-EM structure; CLOCK-BMAL1 on the endogenous Por enhancer nucleosome with tandem E-boxes 7 bp apart (1:3), GraFix cross-linked; 3.8 Å overall; conditions: both partners purified
[6] = molecular target: the molecule itself; assay: as above

Binder: B1
binding result [1]: binds | binding result [2]: binds

binding result [3]: binds
B2: mouse CLOCK bHLH (residues 29–89) with an additional C-terminal tryptophan (domain or fragment)
chain: DDKDKAKRVSRNKSEKKRRDQFNVLIKELGSMLPGNARKMDKSTVLQKSIDFLRKHKETTAW
notes: CLOCK, mouse, bHLH, residues 29-89; additional tryptophan engineered at the C terminus to allow for UV detection; source: E. coli vector (pET28-derived), expressed and purified separately (HisTrap HP)

binding result [4]: binds | binding result [5]: binds
B3: CLOCK bHLH PAS-AB (residues 26-395), chain of the CLOCK-BMAL1 heterodimer (domain or fragment, mouse, UniProt O08785 26-395, looked up)
chain: VEEDDKDKAKRVSRNKSEKKRRDQFNVLIKELGSMLPGNARKMDKSTVLQKSIDFLRKHKETTAQSDASEIRQDWKPTFLSNEEFTQLMLEALDGFFLAIMTDGSIIYVSESVTSLLEHLPSDLVDQSIFNFIPEGEHSEVYKILSTHLLESDSLTPEYLKSKNQLEFCCHMLRGTIDPKEPSTYEYVRFIGNFKSLTSVSTSTHNGFEGTIQRTHRPSYEDRVCFVATVRLATPQFIKEMCTVEEPNEEFTSRHSLEWKFLFLDHRAPPIIGYLPFEVLGTSGYDYYHVDDLENLAKCHEHLMQYGKGKSCYYRFLTKGQQWIWLQTHYYITYHQWNSRPEFIVCTHTVVSYAEVRAERRRELGIEESL
notes: CLOCK, mouse, bHLH PAS-AB, residues 26-395; Always present as part of m1; made a molecule of its own for the contacts that the structures and cross-links assign to CLOCK

B4: CLOCK-BMAL1 bHLH PAS-AB heterodimer (complex)
chain 1: VEEDDKDKAKRVSRNKSEKKRRDQFNVLIKELGSMLPGNARKMDKSTVLQKSIDFLRKHKETTAQSDASEIRQDWKPTFLSNEEFTQLMLEALDGFFLAIMTDGSIIYVSESVTSLLEHLPSDLVDQSIFNFIPEGEHSEVYKILSTHLLESDSLTPEYLKSKNQLEFCCHMLRGTIDPKEPSTYEYVRFIGNFKSLTSVSTSTHNGFEGTIQRTHRPSYEDRVCFVATVRLATPQFIKEMCTVEEPNEEFTSRHSLEWKFLFLDHRAPPIIGYLPFEVLGTSGYDYYHVDDLENLAKCHEHLMQYGKGKSCYYRFLTKGQQWIWLQTHYYITYHQWNSRPEFIVCTHTVVSYAEVRAERRRELGIEESL
chain 2: not shown
notes: CLOCK, mouse, bHLH PAS-AB, residues 26-395; BMAL1, mouse, bHLH PAS-AB, residues 62-441; also called CB; CLOCK-BMAL1 WT; source: insect cells (Spodoptera frugiperda or Hi5), purified (Ni-NTA, TEV cleavage, heparin, Superdex 200); copies: 1 + 1
binding result [6]: binds
